Data taken from patent publication US9371393B2, “Class I anti-CEA antibodies and uses thereof” (Immunomedics, Inc., priority 2009, dated 2016).
[ ]: non-standard residue; d: D form. The star is where a group is joined. HSG = histaminyl-succinyl-glycine, O=C(CCC(=O)NCC(=O)*)NCCc1c[nH]cn1; DTPA = O=C(O)CN(CCN(CC(=O)O)CC(=O)O)CCN(CC(=O)O)CC(=O)*

What was measured:
[1] = Stability of purified 18F-labeled IMP 272 in water; type: physicochemical; settings: 25° C., 40 min
Procedure: The labeled peptide was purified by applying the labeled peptide solution onto a 1 cc (30 mg) WATERS® HLB column (Part #186001879) and washing with 300 μL water to remove unbound F-18. The peptide was eluted by washing the column with 2×100 μL 1:1 EtOH/H2O. The purified peptide was incubated in water at 25° C. and analyzed by reverse phase HPLC (not shown). […] After 40 min incubation in water about 17% of the ^18F was released from the peptide, while 83% was retained (not shown).

[2] = test system: hMN-14×734; test: Antibody binding of 18F-labeled IMP 272 by size exclusion HPLC, hMN-14×734
Procedure: (§1) The peptide (16 μL 2 mM IMP 272, 48 μg) was labeled with ^18F and analyzed for antibody binding by size exclusion HPLC.

[3] = test system: hMN-14×679; test: Antibody binding of 18F-labeled IMP 272 by size exclusion HPLC, hMN-14×679
Procedure: as §1

[4] = Stability of 18F-labeled IMP 272 in PBS; type: physicochemical; settings: room temperature, 150 μL PBS, ~1 hr
Procedure: F-18 Labeling of IMP 272—A 3 μL aliquot of the aluminum stock solution was placed in a REACTI-VIAL™ and mixed with 50 μL ^18F (as received) and 3 μL of the IMP 272 solution. The solution was heated in a heating block at 110° C. for 15 min and analyzed by reverse phase HPLC. […] An additional 10 μL of the IMP 272 solution was added to the reaction and it was heated again and analyzed by reverse phase HPLC (not shown). […] The remainder of the peptide solution was incubated at room temperature with 150 μL PBS for ˜1 hr and then examined by reverse phase HPLC.

[5] = target: RIIα dimers (DDD) (Homo sapiens, UniProt P13861); settings: Alto et al. 2003; read-out: affinity / binding constant for RIIα dimers (DDD); cited from earlier work
[6] = test system: GW-39 human colonic carcinoma; test: GW-39 intrapulmonary micrometastasis model (GW-39iv), survival; type: in vivo, nude mice; settings: cells pretreated with Fab′ 10 μg/mol, 100 μg i.v. 1 day after implantation; untreated 42 days
Procedure: FIG. 7 illustrates an exemplary in vivo micrometastasis study. Top, immunohistochemistry of GW-39 tumor sections stained with a nonspecific antibody (left), MN-14 anti-CEACAM5 (middle), and MN-15 anti-CEACAM6 (right) and photographed at 100×. Bottom, survival of nude mice implanted with 30 μL of a 10% suspension of GW-39 human colonic cancer cells. Mice were implanted with cells that were […] for 30 minutes with MN-3-, MN-15-, or hMN-14-Fab′ (10 μg/mol). Mice also received a single 100 μg dose of the same Fab′ 1 day after cell implantation.
In vivo therapy studies—Female athymic nude mice (6 to 8 weeks old) were purchased from TACONIC® (Germantown, N.Y.). Therapy studies were done using our CEACAM5+/CEACAM6+GW-39 intrapulmonary micrometastasis model, GW-39iv (Sharkey et al., J Natl Cancer Inst 1991, 83:627-32; Blumenthal et al., Cancer Res 1992, 52:6036-44). The GW-39 human colonic carcinoma has been maintained as a serially transplanted signet-ring cell cancer line since 1966 (Goldenberg et al., Transplantation 1966, 4:760-4). […] Body weight was monitored weekly and animal survival recorded. Results were analyzed by the Kaplan-Meier estimated survival curves, and significance was determined with the log-rank comparison of survival curves. Median survival time for each treatment group also was determined. […]

[7] = test system: tumor cell invasion; test: Collagen-based invasion assay, cell line panel; design: species or system human
Procedure: Collagen-based invasion assay—The assay was done using CHEMICON® Kit (#ECM551, MILLIPORE®, Billerica, Mass.). Tumor cells at 80% confluence and were serum-starved for 18 to 24 hours before the assay was used. Cells were harvested with 5 mol of 2 mmol/L EDTA/PBS per 100-mm dish and incubated at 37° C. for 5 to 15 minutes. Cells were collected into 10 to 20 mol of quenching medium (serum-free DMEM containing 5% BSA) to inactivate trypsin/EDTA from the harvesting buffer. Cells were pelleted, resuspended in quenching medium (1×10^6 cells/mol), and appropriate antibody Fabs were added to individual cell aliquots. Cell invasion potential was determined as follows. Baseline invasion and invasion in the presence of a chemoattractant (10% FBS) were measured after a 72-hour incubation period at 37° C. in a 5% CO2 incubator. The bottom side of the collagen-coated polycarbonate membrane insert of the invasion chamber was placed in 400 μL of cell stain for 20 minutes at room temperature and washed. The dye was extracted and transferred into a 96-well microtiter plate for colorimetric measurements (A560 nm).

Chain of RIIα dimers (DDD) (P13861 whole entry): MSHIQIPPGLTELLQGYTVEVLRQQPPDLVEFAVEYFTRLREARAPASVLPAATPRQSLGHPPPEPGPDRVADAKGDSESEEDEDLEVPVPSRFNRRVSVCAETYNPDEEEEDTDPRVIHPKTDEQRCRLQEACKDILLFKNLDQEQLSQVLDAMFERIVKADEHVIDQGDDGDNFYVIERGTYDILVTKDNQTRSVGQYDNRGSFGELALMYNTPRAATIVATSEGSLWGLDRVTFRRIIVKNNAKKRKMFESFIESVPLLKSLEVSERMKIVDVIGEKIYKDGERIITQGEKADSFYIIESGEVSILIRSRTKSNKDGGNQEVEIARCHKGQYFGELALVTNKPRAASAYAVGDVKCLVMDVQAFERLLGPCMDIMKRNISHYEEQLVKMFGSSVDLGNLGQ

**Q.** For “DTPA-Gln-Ala-Lys(HSG)-D-Tyr-Lys(HSG)-NH2 ({DTPA}-QAK(HSG)[dY]K(HSG)-NH2; SMILES C[C@H](NC(=O)[C@H](CCC(N)=O)NC(=O)CN(CCN(CCN(CC(=O)O)CC(=O)O)CC(=O)O)CC(=O)O)C(=O)N[C@@H](CCCCNC(=O)CNC(=O)CCC(=O)NCCc1c[nH]cn1)C(=O)N[C@H](Cc1ccc(O)cc1)C(=O)N[C@@H](CCCCNC(=O)CNC(=O)CCC(=O)NCCc1c[nH]cn1)C(N)=O) [^18F-labeled IMP 272]”, which “^18F released from the peptide” value [1] is on record?
**A.** The value was “about 17%”.

**Q.** And the “^18F retained” value [1]?
**A.** Its value is 83%.

**Q.** And the “binding to irrelevant bispecific antibody hMN-14×734” value [2]?
**A.** Its value is “did not bind”.

**Q.** And the “binding to hMN-14×679” value [3]?
**A.** The value was “bound”.

**Q.** And the “^18F still attached to the peptide” value [4]?
**A.** The value was 42%.

**Q.** And the “^18F unbound” value [4]?
**A.** Its value is 58%.

**Q.** For QIEYLAKQIVDNAIQQA [AKAP-IS], which Kd [5] is on record?
**A.** Its Kd is 0.4 nM.

B1: hMN-14 Fab′: Fab′ of MN-14 in its humanized form, hMN-14 or labetuzumab (antibody, chains of the INN, looked up, V domains shown)
VH: EVQLVESGGGVVQPGRSLRLSCSASGFDFTTYWMSWVRQAPGKGLEWIGEIHPDSSTINYAPSLKDRFTISRDNAKNTLFLQMDSLRPEDTGVYFCASLYFGFPWFAYWGQGTPVTVSS
VL: DIQLTQSPSSLSASVGDRVTITCKASQDVGTSVAWYQQKPGKAPKLLIYWTSTRHTGVPSRFSGSGSGTDFTFTISSLQPEDIATYYCQQYSLYRSFGQGTKVEIK
modifications: Fab′
notes: Fab′ of MN-14 in its humanized form, hMN-14 or labetuzumab
**Q.** Which results are given for B1?
**A.** median survival time [6]: 49 days; effect on tumor cell invasion [7]: had no effect on tumor cell invasion in most cell lines
